The record followed here is US20050074758A1.

In general, Ki refers to the equilibrium dissociation constant of an inhibitor or competing ligand from its target. A high value points to weaker binding. As a reminder, the Kd is the constant that tells how readily two partners part at equilibrium. A high value points to a looser complex.

Assay [1] deals with prokineticin receptor expressed endogenously on M2A7 melanoma cells (ATCC CRL-2500). Description: cell-based or functional assay.
Assay [2] deals with prokineticin receptor(s) of guinea pig ileum (ileal membranes; ileal longitudinal smooth muscle) (guinea pig). Briefly: cell-based or functional assay.
Assay [3] has the same target. Briefly: displacement of 125I-prokineticin 1 (20 pM) from guinea pig ileal membranes, two-site model, low-affinity site. (In a radioligand displacement assay an active substance lowers the binding of a labelled ligand.)
The target is the same in assay [4]. Description: displacement of 125I-prokineticin 1 (20 pM) from guinea pig ileal membranes, two-site model, high-affinity site.
Assay [5] has the same target. Briefly: competition radioligand binding on guinea pig ileal membranes, filtration; displaced tracer 125I-prokineticin 1 (20 pM).
Assay [6] has the same target. Description: saturation binding of 125I-prokineticin 1 to guinea pig ileal membranes, two-site model, low-affinity site.
Assay [7] has the same target. Briefly: saturation binding of 125I-prokineticin 1 to guinea pig ileal membranes, two-site model, high-affinity site.
Assay [8] shares this target. Description: saturation binding of 125I-prokineticin 1 to guinea pig ileal membranes, Scatchard analysis, two-site model, low-affinity site.
The target is the same in assay [9]. Description: saturation binding of 125I-prokineticin 1 to guinea pig ileal membranes, Scatchard analysis, two-site model, high-affinity site.
For assay [10] the target is unchanged. Briefly: displacement of 125I-prokineticin 1 (20 pM) from guinea pig ileal membranes, low-affinity site.
The target is the same in assay [11]. Briefly: displacement of 125I-prokineticin 1 (20 pM) from guinea pig ileal membranes, high-affinity site.

B1: recombinant refolded human prokineticin 1 (unlabeled), 6×His-tagged (ligand)
chain: AVITGACERDVQCGAGTCCAISLWLRGLRMCTPLGREGEECHPGSHKVPFFRKRKHHTCPCLPNLLCSRFPDGRYRCSMDLKNINFHHHHHH
On to B1, for which the EC50 of calcium mobilization in M2A7 melanoma cells (FLIPR) in [1] stood at 12 nM. The molecule also came in with an ED50 of contraction of guinea-pig ileum longitudinal muscle in assay [2] of 0.46 nM. The molecule further showed a time constant to midway contraction of ileal strips in assay [2] of 15 min. Further, the Ki in assay [3] was determined as 1.5 nM; in [4], 0.008 nM. In assay [5], this molecule displayed an IC50 (read off the curve) of 5 nM.

B2: 125I-prokineticin 1 (iodinated recombinant human prokineticin 1) (ligand)
chain: B1 chain
modifications: 125I label by the iodogen method; iodinated residue(s) not stated
With B2, the figures for the Bmax (fmol/mg of protein) in [6] and in assay [7] were 26.4 and 7.8, respectively. Besides, the figures for the Kd in assay [8] and in assay [9] were 0.227 nM and 0.005 nM, respectively.

B3: chimeric prokineticin 12 (exons 1 and 2 of prokineticin 1, exon 3 of prokineticin 2) (ligand)
chain: AVITGACERDVQCGAGTCCAISLWLRGLRMCTPLGREGEECHPGSHKVPFFGRRMHHTCPCLPGLACLRTSFNRFICLAQK
For B3, the time constant to midway contraction of ileal strips in assay [2] amounted to 40 min.

B4: recombinant refolded human prokineticin 2 (unlabeled), 6×His-tagged (ligand)
chain: AVITGACDKDSQCGGGMCCAVSIWVKSIRICTPMGKLGDSCHPLTRKVPFFGRRMHHTCPCLPGLACLRTSFNRFICLAQKHHHHHH
Consider B4, for which the EC50 of calcium mobilization in M2A7 melanoma cells (FLIPR) in [1] was 21 nM. Further, in assay [2], the ED50 of contraction of guinea-pig ileum longitudinal muscle is 0.9 nM and the time constant to midway contraction of ileal strips was found to be 15 min. The Ki in assay [10] was found to be 1.22 nM. In assay [11], the Ki came out at 0.0042 nM. The IC50 (read off the curve) in assay [5] was 4 nM.

B5: chimeric prokineticin 21 (exons 1 and 2 of prokineticin 2, exon 3 of prokineticin 1) (ligand)
chain: AVITGACDKDSQCGGGMCCAVSIWVKSIRICTPMGKLGDSCHPLTRKVPFFRKRKHHTCPCLPNLLCSRFPDGRYRCSMDLKNINF
In assay [2], B5 showed an EC50 of ileal contraction, fold against prokineticin 1 or prokineticin 2 of 8 fold and a time constant to midway contraction of ileal strips of 40 min.
